Test results from the supplement of paper PMC10567573.

B1: SLC19A2 (parent)
chain: IYPVWTYSYLVLLFPVFLATDYLR
B2: MIA2 (parent)
chain: SVIEPVQESSFRSRKIAVEDENDL

Variants of: B1
Assay: protein stability index of a GFP-peptide fusion (GPS, HEK-293T) (PSI 1-6); higher = more stable
Settings: c terminus: a fixed tail appended
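Note: lentivirally expressed fusions sorted by FACS into six bins by GFP to DsRed ratio, PSI derived from sequencing read proportions per bin multiplied by bin number.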

Protein stability index, by site and new letter:
Y2: D 2.77; L 2.15; Q 3.11; K 2.44; P 2.62; G 1.97; A 3.21; T 4.06; H 2.29; S 2.56; F 3.09; M 3.15; E 2.56; V 3.19; I 4.61; W 3.59
V4: D 2.85; A 2.73; C 2.33
I1: F 2.21; Y 1.63; A 2.12; M 2.3; P 3.33; V 4.95; W 2.38; H 4.44; T 3.48; L 3.49; S 2.54; N 2.98; G 2.67; R 1.87
P3: K 2.02; N 2.57; W 3.05; L 3.98; Y 2.94; A 3.47; H 3.02; E 2.5; C 3.34; G 3.79; S 3.26

Variants of: B2
Assay: as above
Settings: c terminus: a fixed tail appended

Protein stability index of substitutions, site by site:
L24: I 4.66; V 5.82; D 5.26; T 5.57; N 5.67; K 5.12; R 5.49; Y 4.92; F 5.19; P 5.42; M 5.31; Q 5.51; S 5.88; H 5; C 5.32; G 5.75; E 5.67; A 5.43; W 4.73
D23: V 5.1; R 5.07; M 4.82; A 5.26; Q 5.83; C 4.39; K 4.95; L 4.63; E 5.54; S 5.2; G 4.72; Y 4.24; F 3.65; H 4.95; W 3.86; I 4.64; T 4.71; P 4.28; N 5.1
D20: K 5.13; T 5.38; W 4.1; V 4.57; Y 4.18; M 4.8; I 4.64; C 4.89; Q 5.25; N 5.57; G 5.21; H 4.35; F 3.83; A 4.63; L 4.42; R 4.94; E 5.72; P 3.94
E21: Q 5.29; Y 4.47; G 5.27; T 5.19; I 4.46; D 5.38; N 4.74; F 4.31; A 4.83; V 4.9; C 4.32; M 4.32; K 5.05; W 3.85; S 5.23; P 4.42; R 4.7; L 4.62; H 4.63
E19: T 5.02; L 4.56; Q 5.33; A 5.13; H 4.56; D 5.03; C 4.62; R 4.51; V 5.03; S 5.31; M 4.62; Y 4.67; K 5.35; N 5.08; F 4.53; W 4.15; I 4.25; G 4.5; P 5.32
N22: Q 5.77; K 5.04; A 5.47; V 5.73; G 5.04; W 4.35; L 4.8; S 3.82; D 5.84; F 4.96; I 4.89; E 5.08; P 4.96; M 4.74; R 5.09; T 5.33; C 5; H 5.43; Y 4.53
V18: Y 5.21; Q 5.15; W 5.16; R 5.72; L 4.56; S 5.69; M 4.43; P 5.32; T 4.94; N 5.1
